The record followed here is paper PMC10671530, “Linking New Alleles at the Oscillator Loci to Flowering and Expansion of Asian Rice”.

The chains are these.
B1: OsPRR1-p3 (EE probe) (dsDNA)
DNA 1: CATCTGGCTTAACCACGCCCGGCTCTC
DNA 2: GAGAGCCGGGCGTGGTTAAGCCAGATG
B2: OsPRR1-p2 (EE probe) (dsDNA)
DNA 1: GTTTCGTTTATTACACCGCCCCGG
DNA 2: CCGGGGCGGTGTAATAAACGAAAC
B3: OsPRR1-p1 (EE probe) (dsDNA)
DNA 1: GTAGGGGGAGGAAAATATCCTGTGCCAGTAG
DNA 2: CTACTGGCACAGGATATTTTCCTCCCCCTAC
B4: probe 9 (OsPRR1_a, 12-nt deletion) (dsDNA)
DNA 1: CCAACGCCGCCGCCGC
DNA 2: GCGGCGGCGGCGTTGG

The target of this data set is OsCCA1 DNA-binding (R/MYB) domain (Oryza sativa (cDNA of Heidao), UniProt A0A0P0XBU0 1-138). Briefly: EMSA; EMSA: 10 uL with 2 uL 5x binding buffer (Invitrogen), 1.3 ug protein, 20 pmol probe, 23 C, 20 min; 10% native PAGE, 100 V about 70 min; gel stained for DNA and. As to conditions: protein: recombinant; (pCold vector, Ni Sepharose).
Sequence of OsCCA1 DNA-binding (R/MYB) domain (A0A0P0XBU0 1-138): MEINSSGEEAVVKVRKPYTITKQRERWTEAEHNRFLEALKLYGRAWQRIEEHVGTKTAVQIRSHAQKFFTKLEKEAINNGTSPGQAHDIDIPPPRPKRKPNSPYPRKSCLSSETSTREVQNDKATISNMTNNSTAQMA
B1: the binding result is listed as “binds”.
Take B2: the binding result is “binds”.
Take B3: the binding result is reported as “binds”.
Consider B4, for which the binding result is “no binding”.
